Tested on: MS2 coat protein
Test: apparent KD of MS2 coat protein; designed switch direction (-1 OFF switch, 1 ON switch): 1; higher = weaker reporter binding
How it was run: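 Stalled E. coli RNA polymerase transcribed designed RNA switches on Illumina chips, which were then titrated with SNAP-549-labelled MS2 coat protein, doubling from 0.7 or 1.5 nM to 3 µM. Steps lasted from 0.8–1.5 h at the lowest concentration to 10–20 min at the highest. The apparent KD is each design's median over clusters of curve-fitted normalised fluorescence.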

[1] = input ligand: microRNA oligo, concentration not stated
[2] = Eterna round: R95, input ligand: FMN 200 uM
[3] = Eterna round: R95, input ligand: microRNA oligo, concentration not stated
[4] = Eterna round: R95, input ligand: none

Sequence	apparent KD of MS2 coat protein (input ligand: FMN 200 uM) [µM]	apparent KD of MS2 coat protein [1] [µM]	apparent KD of MS2 coat protein (input ligand: none) [µM]	apparent KD of MS2 coat protein [2] [µM]	apparent KD of MS2 coat protein [3] [µM]	apparent KD of MS2 coat protein [4] [µM]
GUACUCAUGUAAGGAUAUGCAGCCGUUUCGGCUGCAGAAGGUACUAUAAUACAUGAGGAUCACCCAUGUCUCUAUAAUUUAGUG [salish99_SSNG1_r04_901] (Eterna round: R96, puzzle: Same State NG 1)	0.0706	0.0345	0.049			
GUAGAACAUGAGGAUCACCCAUGUGAAGACGCAUGAGGAUAUAUACGUAAAUAGCAUACGAUAGAAGGCAUGAUAA [JR_SS001_Sub1703] (Eterna round: R96, puzzle: Same State 1)		0.0406				
GUAGCAUACCGAGGAUAUUCAUAAACAUGAGGAUCACCCAUGUAGGCCAGCAUUAGCUGGCCUUGGGAGAAGGCGGAAUGCUAC [Xeonanis - 20 Mod51] (Eterna round: R96, puzzle: Same State NG 2)	0.0174	0.0539	0.0774			
GUAGCAUACCGAGGAUAUUCAUACAUGAGGAUCACCCAUGUUUAAUUAUAGGCCAAAAGGCCUUGGGAGAAGGCGGAAUGCUAC [Xeonanis - 20 Mod14] (Eterna round: R96, puzzle: Same State NG 2)	0.00839	0.0101	0.0144			
GUAGCAUACCGAGGAUAUUCAUACAUGAGGAUCACCCAUGUUUAGGCCAGCAUUAGCUGGCCUUGGGAGAAGGCGGAAUGCUAC [Xeonanis - 20 Mod54] (Eterna round: R96, puzzle: Same State NG 2)	0.0177	0.0135	0.0226			
GUAGCAUACCGAGGAUAUUCAUAUACAUGAGGAUCACCCAUGUUUAUAUAGGCCAAAAGGCCUUGGGAGAAGGCGGAAUGCUAC [Xeonanis - 20 Mod10] (Eterna round: R96, puzzle: Same State NG 2)	0.0121	0.00788	0.013			
GUAGCAUACCGAGGAUAUUCAUAUUAAAACAUGAGGAUCACCCAUGUUUAGGCCAAAAGGCCUUGGGAGAAGGCGGAAUGCUAC [Xeonanis - 20 Mod4] (Eterna round: R96, puzzle: Same State NG 2)	0.0192	0.0179	0.0251			
GUAGCAUACCGAGGAUAUUCAUAUUAAAUACAUGAGGAUCACCCAUGUUAGGCCAAAAGGCCUUGGGAGAAGGCGGAAUGCUAC [Xeonanis - 20 Mod2] (Eterna round: R96, puzzle: Same State NG 2)	0.0209	0.0336	0.0635			
GUAGCAUACCGAGGAUAUUCAUAUUACAUGAGGAUCACCCAUGUAAGGCCACAUUAGUGGCCUUGGGAGAAGGCGGAAUGCUAC [Xeonanis - 20 Mod42] (Eterna round: R96, puzzle: Same State NG 2)	0.0183	0.03	0.18			
GUAGCAUACCGAGGAUAUUCAUAUUACAUGAGGAUCACCCAUGUGGCCAGCAUUAGCUGGCCUUGGGAGAAGGCGGAAUGCUAC [Xeonanis - 20 Mod49] (Eterna round: R96, puzzle: Same State NG 2)	0.11	0.623	1.15			
GUAGCAUACCGAGGAUAUUCAUUACAUGAGGAUCACCCAUGUUUUAUAGGUCGAUUACGACCUUGGGAGAAGGCGGAAUGCUAC [Xeonanis - 20 Mod30] (Eterna round: R96, puzzle: Same State NG 2)	0.0105	0.00936	0.0156			
GUAGCAUACCGAGGAUAUUCUACAUGAGGAUCACCCAUGUUUAAUAGGCCACAUUAGUGGCCUUGGGAGAAGGCGGAAUGCUAC [Xeonanis - 20 Mod47] (Eterna round: R96, puzzle: Same State NG 2)	0.0136	0.0127	0.0198			
GUAUAACAUGAGGAUCACCCAUGUCAACAAAGUCGAGGAUAUGGGCAUAGAUUAUAAGAACCAGAAGGCGAAUAUG [Mat - Same State 1 - Mod of UCT - D42] (puzzle: Same State 1)				0.119	0.219	0.666
GUCAGCGAUUGAGGAUAUCACGUCGUUUAGACGUGAGAAGGCGAUCAUAACAUGAGGAUCACCCAUGUAUUACAUGAAGCUGAC [SSNG1/5-A3] (Eterna round: R96, puzzle: Same State NG 1)	0.0172	0.0201	0.0326			
GUCCAAAACACAGGAUAUCCCAGUCAUGAUCUGGGAGAAGGGUGGCCACAUGAGGAUCACCCAUGUGAAGUGCGAGAGGCACGA [Inerraat] (Eterna round: R96, puzzle: Same State NG 1)	0.258	0.827	0.629			
GUGAGAUGUUCAGGAUAUUUCAGGAUAGUUAAUCCAAGGCCAUCACAUGAGGAUCACCCAUGUCGAGAGAAGGGAAUUCUCAGG [Eternabot solution 43] (Eterna round: R96, puzzle: Same State NG 2)	0.378	0.331	0.433			

Sequence	apparent KD of MS2 coat protein (input ligand: FMN 200 uM) [µM]	apparent KD of MS2 coat protein [1] [µM]	apparent KD of MS2 coat protein (input ligand: none) [µM]	apparent KD of MS2 coat protein [2] [µM]	apparent KD of MS2 coat protein [3] [µM]	apparent KD of MS2 coat protein [4] [µM]
GUGCUCGUGUGAGGAUAUGCUUCCGUUUCGGCUGCAGAAGGUACUAUUAUACAUGAGGAUCACCCAUGUCUCUUUUGUUCGGUG [salish99_SSNG1_r04_911] (Eterna round: R96, puzzle: Same State NG 1)	0.0669	0.0382	0.0588			
GUGGCCUAGGCACAGGAUAUGUUUCUCGUAACAUGAGGAUCACCCAUGUGCCUUUGAGAUUUUAUGCAGAAGGGUGCACGCCACG [JL Atiinbe mod 04] (Eterna round: R96, puzzle: Same State 2)	0.0211	0.214	0.425			
GUGGCCUAGGCACAGGAUAUGUUUCUCGUAACAUGAGGAUCACCCAUGUGCCUUUGAGAUUUUAUGCAGAAGGGUGCACGCCACG [JL Atiinbe mod 04] (puzzle: Same State 2)				0.0206	0.273	0.491
GUGGUCAGACAUGAGGAUCACCCAUGUGGAAUAAAUAACAGACAGGAUAUUUAAUAUAGGAUAUAGAAGAAGGGUCGAUUGGUG (Eterna round: R96, puzzle: Same State NG 3)	0.117	0.0875	0.103			
GUGGUCAGACAUGAGGAUCACCCAUGUGGAAUAAAUAACGGACAGGAUAUGCAAUAUAGGAUAUAGUAGAAGGGUUGAUUGGUG (Eterna round: R96, puzzle: Same State NG 3)		0.0493				
GUGGUCAGACAUGAGGAUCACCCAUGUGGAAUAAAUAACGGUGAGGAUAUGCAAUAUAGGAUAUAGUAGAAGGCAUGAUUGGUG (Eterna round: R96, puzzle: Same State NG 3)	0.164	0.104	0.132			
GUGGUCAGACAUGAGGAUCACCCAUGUGGAAUAAAUAAGGAACAGGAUAUCUAAUAUAGGAUAUAAGAGAAGGGUUGGUUGGUG (Eterna round: R96, puzzle: Same State NG 3)		0.0619				
GUGGUCAGACAUGAGGAUCACCCAUGUGGAAUAAAUAAGGUUUAGGAUAUGGAAUAUAGGAUAUACCAGAAGGGAGGGUUGGUG (Eterna round: R96, puzzle: Same State NG 3)		0.0904				
GUGGUGAAUUAAGGAUAUCGAGUCAAGAUGUUAAACAUGAGGAUCACCCAUGUGGGUUGCGGUAUCGAGAAGGUAAUUUACGGG [salish99_SSNG2_r04_506] (Eterna round: R96, puzzle: Same State NG 2)	0.0173	0.0201	0.0303			
GUGUGUUGCGGGCAGGAUAUGUACUUGAGUACAUGAGGAUCACCCAUGUGCGGGUGUUUCACCCGACAGAAGGGCCUAUCGCGAC [JL-ss2-3.25 ViennaUCT mod] (Eterna round: R96, puzzle: Same State 2)	0.252	0.457	1.07			
GUGUGUUGCGGGCAGGAUAUGUACUUGAGUACAUGAGGAUCACCCAUGUGCGGGUGUUUCACCCGACAGAAGGGCCUAUCGCGAC [JL-ss2-3.25 ViennaUCT mod] (puzzle: Same State 2)				0.145	0.136	0.664
GUGUUACAUGAGGAUCACCCAUGUUGUUGUAGAUAAGGAUAUAUGGGAACGAGAGAAAUAAUAGAAGGUAUUAGGC [JR_SS1_Sub060] (puzzle: Same State 1)					0.0774	
GUUACAUGAGGAUCACCCAUGUAUGUGUGGGAGUAAGUGUCUUAGGAUAUCUAGUAUUUAAUUGAAGAGAAGGAAGAUUGUUGU [JMF's solution 67] (Eterna round: R96, puzzle: Same State NG 3)	0.109	0.0872	0.108			
GUUACAUGAGGAUCACCCAUGUAUGUGUGGGAGUAAGUGUCUUAGGAUAUCUAGUGUUUAAUUUAAGAGAAGGAAGAUUGUUGU [JMF's solution 53] (Eterna round: R96, puzzle: Same State NG 3)	0.134	0.0968	0.116			
GUUACAUGAGGAUCACCCAUGUAUGUGUGGGAGUAAGUGUCUUAGGAUAUCUAUUAUUUUAAUUAAGAGAAGGAAGAUUGUUGU [JMF's solution 20] (Eterna round: R96, puzzle: Same State NG 3)	0.0986	0.113	0.122			
